According to patent publication US20230399395A1 (SHANGHAI NOVAMAB BIOPHARMACEUTICALS, published 2023):

T1: mouse IL5 (mouse, UniProt P04401 21-133)
T1 sequence (looked up): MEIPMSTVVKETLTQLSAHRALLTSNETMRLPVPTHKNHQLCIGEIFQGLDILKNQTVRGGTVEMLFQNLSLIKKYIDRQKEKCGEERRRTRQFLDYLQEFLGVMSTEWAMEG


How the values were obtained:
human IL5 [1] = molecular target: T2, human IL5 (human, UniProt P05113 20-134, biotinylated (IL5-biotin) in Examples 2, 5, 6, 9 and 11; site not stated); test: BLI (Fortebio Red96), 1:1 global fit
T2 construct: also called interleukin 5; IL5 antigen protein

mouse IL5 = molecular target: T1, mouse IL5; test: ELISA, coated IL5, anti-HA detection
Experimental: After washing 5 times with PBST, 300 μL 1% BSA was added to each well for blocking at room temperature for 2 hours. […] Then the plate was washed for 5 times with PBST, 100 μL diluted mouse anti-HA antibody (1:2000 dilution) was added and incubated for 1 hour at 37° C. After washing 5 times with PBST, 100 μL diluted alkaline phosphatase modified anti-mouse antibody (1:2000 dilution) was added and incubated at 37° C. for 1 hour. Then the plate was washed with PBST for 5 times, developing solution was added, and the absorption value was measured at 405 nm wavelength by a microplate reader.

human IL5 [2] = molecular target: T2, human IL5; test: cell-based or functional assay
human IL5 [3] = molecular target: T2, human IL5; test: Flow cytometry, blocking of IL5-biotin binding to HEK293F cells expressing IL5R
Experimental: Specifically, The HEK293F stable cells with high expression of IL5R were centrifuged at 1000 rpm for 5 min, and the supernatant was discarded. The cells were washed once with 5 mL PBS and then resuspended with 2 mL PBS. After counting, the cells were divided into a 96-well plate with 3×10⁵ cells per well. […] After centrifugation at 4° C. at 3000 rpm, 200 μL PBS was added to each well, and then centrifuged at 3000 rpm and 4° C. for 4 min after resuspension. The diluted SA-PE antibody (diluted at 0.3:100) was added and incubated at 4° C. for 20 min. After centrifugation at 4° C. for 4 min at 3000 rpm, the supernatant was discarded, and 200 μL PBS was added to each well to wash the cells twice. Then 200 μL PBS was added to resuspend the cells, transfer to a flow tube, and the PE signal of each sample was detected by flow cytometry.

| Binder | Kd (human IL5 [1]) [nM] | binding result (mouse IL5) | IC50 of inhibition of the proliferation of TF-1 cells induced by IL5 (CCK8, OD450) (human IL5 [2]) [nM] | IC50 (human IL5 [3]) [µg/mL] |
| --- | --- | --- | --- | --- |
| Nb92 (VHH, Camel nanobody, prokaryotic expression from the pMECS vector; It was detected with anti-HA antibody) VHH: QVQLQESGGGLVQPGGSLRLSCAASGFTFSNYYMSWVRQAPGKGLEWVSSISSDGSNTYYEDSVKGRFTISRDNANNTLYLQMNSLKSEDTALYHCATDLYDDSWYDHWGQGTQVTVSS | < 1 | no binding |  |  |
| bivalent biepitope IL5 nanobody HuNb66-HuNb21 expressed by yeast (VHH, also called bivalent biepitopic antibody HuNb66-HuNb21) EVQLQESGGGLVQPGGSLRLSCAASGYTVSSNMGWFRQAPGKEREGVAAIYPDGATYYADSVKGRFTISRDNSENTLYLQMNSLRAEDTAMYYCAADLAFNGLGTLALHGYWGQGTLVTVSSGGGGSGGGGSGGGGSGGGGSEVQLQESGGGLVQPGGSLRLSCAASGYPYSGDYCMGWFRQAPGKEREGVAAFYTGGGSTYYADSVKGRFTISRDNSKNTLYLQMNSLRAEDTAVYYCAADPWSVYGGSCGVKDPNPKAFNYWGQGTLVTVSS |  |  | 0.0512 | 0.841 |
| Nb21 (VHH, Camel nanobody, prokaryotic expression from the pMECS vector; also called Nb21-biotin) VHH: QVQLQESGGGSAQAGGSLKLSCVVSGYPYSGDYCMGWFRQAPGKEREGVAAFYTGGGSTYYADSVKGRFTTSQDNATSTFHLQMNSLKPEDTATYYCAADPWSVYGGSCGVKDPNPKAFNYWGQGTQVTVSS | < 1 | no binding |  |  |
| Nb66 (VHH, Camel nanobody, prokaryotic expression from the pMECS vector; It was detected with anti-HA antibody) VHH: QVQLQESGGGSVQAGGSLRLSCAASGYTVSSNMGWFRQAPGKEREGVAAIYPDGATYYADSVKGRFTISQDNAENTVYLQMNSLKPEDTAMYYCAADLAFNGLGTLALHGYWGQGTQVTVSS | < 1 | no binding |  |  |
| Nb25 (VHH, Camel nanobody, prokaryotic expression from the pMECS vector; It was detected with anti-HA antibody) VHH: QVQLQESGGGSVQAGGSLRLSCAASEYTYSRYCMGWFRQVPGKEREGVATIDSDGSTSYADSVKGRFTISKDNAKNTLYLQMNSLKPEDTAMYYCAARYFYIATTGLRPCGEYEYNYWGQGTQVTVSS | < 1 | no binding |  |  |
